Laboratory results published in patent US20140057332A1, “GLUCO-OLIGOSACCHARIDE OXIDASES FROM ACREMONIUM STRICTUM AND USES THEREOF” (The Governing Council of the University of Toronto, priority 2011, published 2014).

Tests used:
[1] = Chromogenic H2O2 oxidase assay / kinetic analysis on xylobiose
Method: (§2) A chromogenic assay was used to measure hydrogen peroxide production (15). Reactions contained 0.1 mM 4aminoantipyrine (4AA), 1 mM phenol, 0.5 U horseradish peroxidase, 40 mM Tris-HCl (pH 8.0), and different substrates were initiated by adding 0.2 μg of enzymes to the 250 μL reaction mixture. The production of H2O2 was coupled to the oxidation of 4aminoantipyrine by horseradish peroxidase and detected at 500 nm. Reactions were incubated at 37° C. for 15 min to measure the specific activity of GOOX on 10 mM of monosaccharide or 1 mM of oligosaccharide.
(§3) At least 12 substrate concentrations were included to obtain kinetic parameters for each substrate. Initial rates were obtained by measuring reaction products every 30 s for 15 min at 37° C. and pH 8.0, and kinetic parameters were calculated using the Michaelis-Menten equation (GraphPad Prism5 Software).

[2] = Chromogenic H2O2 oxidase assay / kinetic analysis on NAG
Method: as §2, §3

[3] = Chromogenic H2O2 oxidase assay / kinetic analysis on xylotriose
Method: as §2, §3

[4] = substrate: OC1OC[C@@H](O[C@@H]2OC[C@@H](O)[C@H](O)[C@H]2O)[C@H](O)[C@H]1O; assay: purified protein, by the assay type; conditions: other: 37° C., pH 8.0
Method: as §2, §3

[5] = substrate: OC[C@H]1OC(O)[C@H](O)[C@@H](O)[C@@H]1O; assay: purified protein, by the assay type; conditions: other: 37° C., pH 8.0
Method: as §2, §3

[6] = substrate: OC[C@H]1O[C@H](O[C@H]2[C@H](O)[C@@H](O)C(O)O[C@@H]2CO)[C@H](O)[C@@H](O)[C@@H]1O; assay: purified protein, by the assay type; conditions: other: 37° C., pH 8.0
Method: as §2, §3

[7] = Chromogenic H2O2 oxidase assay on xylohexaose; conditions: 1 mM xylohexaose; 37° C., 15 min
Method: as §2
(§4) An additional eight mutations, identified as Y72F, Y72A, E247A, E314A, W351A, N388S, Q353N, Q384A, were created in GOOX-VN to assess the influence of these residues on the substrate selectivity of GOOX-VN. […] The specific activity of each mutant was then measured at 37° C. for 15 min using 10 mM mono-sugars and 1 mM oligosaccharides as performed for Y300A, Y300N, and W351F (Table 11).

[8] = Chromogenic H2O2 oxidase assay / kinetic analysis on maltose
Method: as §2, §3

[9] = Chromogenic H2O2 oxidase assay / kinetic analysis on glucose
Method: as §2, §3

[10] = Chromogenic H2O2 oxidase assay on xylotetraose; conditions: 1 mM xylotetraose; 37° C., 15 min
Method: as §2, §4

pH stability of enzyme = type: physicochemical
Method: (§1) Temperature stability was measured by incubating 0.2 μg of enzyme for 1 h at nine different temperatures ranging from 25 to 60° C. (Table 9). While GOOX-VN and the variant GOOX-V were stable at 45° C., both lost more than 70% activity after incubation for 1 h at 50° C. […] The pH stability of GOOX-VN was determined by incubating 0.2 μg of the enzyme for 1 h at pH values from pH 3 to 12. After 1 h of incubation, GOOX-VN retained more than 80% activity at pH 5 to pH 10, 40% activity at pH 4, and less than 10% activity at pH values below 3 or above 11. Finally, the optimum pH for GOOX-VN activity was determined by incubating 0.1 μg of enzyme at 37° C. for up to 5 min with 25 mM cellobiose in 25 mM Britton-Robinson universal buffer solutions at pH 5 to 12. At regular time points, the chromogenic assay mix containing 400 mM potassium phosphate buffer pH 6, 0.1 mM 4-aminoantipyrine, 1 mM phenol, 3 U/ml horseradish peroxidase and 40 mM cellobiose was added to the reaction and was incubated for approximately 5 min at 37° C., until the chromogenic compound was detected.

[11] = Enzyme stability at 37° C. (residual activity on maltose); type: physicochemical; conditions: pre-incubation at 37° C. for 60 min; 10 mM maltose (FIG. 11)
Method: The enzyme stability was evaluated in triplicate by incubating 0.6 μg of each enzyme preparation in 40 mM Tris-HCl buffer (pH 8.0) for 0, 5, 15, 25, 35, and 60 min at 37° C. Residual enzyme activity was measured at 37° C. for 15 min at pH 8.0 using 10 mM maltose and 0.2 μg of protein.

[12] = Effect of deglycosylation with PNGaseF on enzyme activity; type: biochemical
Method: Approximately 2 μg of purified enzyme was treated with PNGaseF (New England Biolabs) using denaturing and native conditions. Samples that were deglycosylated using denaturing conditions were analysed by SDS PAGE, while samples deglycosylated using native conditions were used to evaluate the impact of glycosylation on enzyme activity. The activity of enzymes was measured on 10 mM maltose at 37° C. for 15 min. (Table 7). N-glycosylation was predicted by NetNGlyc (http://www.cbs.dtu.dk/services/NetNGlyc/) while O-glycosylation was predicted by OGPET (http://ogpet.utep.edu/OGPET/).

Optimum pH for activity = type: biochemical; conditions: 25 mM cellobiose, 37° C., Britton-Robinson buffer pH 5 to 12
Method: as §1

[13] = Chromogenic H2O2 oxidase assay on xylopentaose; conditions: 1 mM xylopentaose; 37° C., 15 min
Method: as §2, §4

[14] = Temperature stability (residual activity on cellobiose); type: physicochemical; conditions: for Residual activity after 1 h: assay 1 mM cellobiose, 37° C., pH 8
Method: as §1

[15] = Chromogenic H2O2 oxidase assay / kinetic analysis on cellotriose
Method: as §2, §3

[16] = Chromogenic H2O2 oxidase assay / kinetic analysis on galactose
Method: as §2, §3

[17] = 1 mM xylotriose, 37° C., 15 min
[18] = 1 mM cellotriose, 37° C., 15 min
[19] = 10 mM galactose, 37° C., 15 min

B1: Acremonium strictum gluco-oligosaccharide oxidase GOOX-VN (type strain CBS 346.70, V38 and N388), SEQ ID NO. 2 (Sarocladium strictum; A38V/S388N) (protein)
chain: NSINACLAAADVEFHEEDSEGWEMDGTAFNLRVDYDPVAIAIPRSTEDIAAAVQCGLDAGVQISAKGGGHSYGSYGFGGEDGHLMLELDRMYRVSVDDDNVATIQGGARLGYTALELLDQGNRALTHGTCPAVGIGGHVLGGGYGFATHTHGLTLDWLVGATVVLADASIVHVSKTENADLFWALRGGGGGFAIVSEFEFNTFEAPEIITTYQVTTTWNRKQHVAGLKALQDWAENTMPRELSMRLEINANALNWEGNYFGNAKDLKKVLQPIMKKAGGKSTISKLVETDWYGQINTYLYGADLNITYNYDVHEYFYANSLTAPRLSDEAISAFVDYKFDNSSVRPGRGWWIQWDFHGGKNSALASHSNDETAYAHRDQLWLWQFYDNIYDYENNTSPYPESGFEFMQGFVATIEDTLPEDRKGKYFNYADTTLDKEEAQKLYWRGNLEKLQAIKAKYDPEDVFGNVVSVEPIA
[1]; 1 mM xylobiose, 37° C., 15 min
  Specific Activity of Enzyme Variants: 7.9 µmol/min/mg
  Specific activity Defined substrate concentration: 7.92 µmol/mg/min
[1]; substrate xylobiose
  Specific activity From Vmax: 8.73 µmol/mg/min
[2]; 10 mM NAG, 37° C., 15 min
  Specific Activity of Enzyme Variants: 0.2 µmol/min/mg
  Specific activity Defined substrate concentration: 0.25 µmol/mg/min
[2]; after 3 min using 10 mM sugar
  oxidation of NAG: detected
[2]; substrate NAG
  Specific activity From Vmax: 8.00 µmol/mg/min
[3]; [17]
  Specific Activity of Enzyme Variants: 7.5 µmol/min/mg
  Specific activity Defined substrate concentration: 7.48 µmol/mg/min
[3]; substrate xylotriose
  Specific activity From Vmax: 8.23 µmol/mg/min
[4]
  Km: 0.10 ± 0.00 mM
  kcat: 8.813 ± 0.085 s⁻¹
  kcat/Km: 89800 ± 867 M⁻¹ s⁻¹
[5]
  Km: 17.36 ± 0.70 mM
[6]
  Km: 2.81 ± 0.16 mM
[7]
  Specific Activity of Enzyme Variants: 11.0 µmol/min/mg
[8]; 1 mM maltose, 37° C., 15 min
  Specific Activity of Enzyme Variants: 1.5 µmol/min/mg
  Specific activity Defined substrate concentration: 1.53 µmol/mg/min
[8]; substrate maltose
  Specific activity From Vmax: 5.94 µmol/mg/min
[9]; 10 mM glucose, 37° C., 15 min
  Specific Activity of Enzyme Variants: 2.6 µmol/min/mg
  Specific activity Defined substrate concentration: 2.62 µmol/mg/min
[9]; substrate glucose
  Specific activity From Vmax: 7.41 µmol/mg/min
[10]
  Specific Activity of Enzyme Variants: 10.2 µmol/min/mg
pH stability of enzyme; pH 4
  activity retained after 1 h of incubation: 40%
pH stability of enzyme; pH 5 to pH 10
  activity retained after 1 h of incubation: more than 80%
pH stability of enzyme; pH values below 3 or above 11
  activity retained after 1 h of incubation: less than 10%
[11]
  activity following pre-incubation: remained active
[12]; deglycosylated with PNGaseF (native conditions), 10 mM maltose, 15 min at 37° C., duplicate
  Activity, Deglycosylated: 3.43 nmol/min
[12]; deglycosylation under native conditions
  loss in enzyme activity on deglycosylation: did not cause a detectable loss in enzyme activity
[12]; glycosylated enzyme, 10 mM maltose, 15 min at 37° C., duplicate
  Activity, Glycosylated: 3.51 nmol/min
Optimum pH for activity
  pH optimum: 10 pH
[13]
  Specific Activity of Enzyme Variants: 10.8 µmol/min/mg
[14]; 1 h at 45° C.
  stability at 45° C.: stable
[14]; incubation at 25° C.
  Residual activity after 1 h: 100%
[14]; incubation at 30° C.
  Residual activity after 1 h: 95%
[14]; incubation at 35° C.
  Residual activity after 1 h: 100%
[14]; incubation at 40° C.
  Residual activity after 1 h: 100%
[14]; incubation at 45° C.
  Residual activity after 1 h: 64%
[14]; incubation at 50° C.
  Residual activity after 1 h: 7%
[14]; incubation at 55° C.
  Residual activity after 1 h: <5%
[14]; incubation at 60° C.
  Residual activity after 1 h: <5%
[15]; [18]
  Specific Activity of Enzyme Variants: 5.1 µmol/min/mg
  Specific activity Defined substrate concentration: 5.12 µmol/mg/min
[15]; substrate cellotriose
  Specific activity From Vmax: 5.96 µmol/mg/min
[16]; [19]
  Specific Activity of Enzyme Variants: 0.5 µmol/min/mg
  Specific activity Defined substrate concentration: 0.52 µmol/mg/min
[16]; after 3 min using 10 mM sugar
  oxidation of galactose: detected
[16]; substrate galactose
  Specific activity From Vmax: 7.08 µmol/mg/min
